In patent US20250129163A1 one finds Kd, koff and kon data, which are given here for one substance.

As a reminder, the Kd is the free concentration of one partner at which half of the binding sites on the other are occupied at equilibrium, for simple one-to-one binding. A higher Kd goes with a looser complex. In general, koff refers to the first-order rate constant of dissociation. What is called kon is the rate constant with which the complex forms. A lower kon goes with slower complex formation.

The experiment has as its target FcγRIIIa-bio (UniProt P08637). Briefly: BLI (Fortebio), FcγRIIIa-bio immobilized on SA sensor, antibody 31.3-500 nM, 1:1 fit. For orientation: In BLI a coated tip is dipped into the sample, and binding shifts an interference pattern.
Chain of UniProt P08637 (P08637 17-208 limits assumed): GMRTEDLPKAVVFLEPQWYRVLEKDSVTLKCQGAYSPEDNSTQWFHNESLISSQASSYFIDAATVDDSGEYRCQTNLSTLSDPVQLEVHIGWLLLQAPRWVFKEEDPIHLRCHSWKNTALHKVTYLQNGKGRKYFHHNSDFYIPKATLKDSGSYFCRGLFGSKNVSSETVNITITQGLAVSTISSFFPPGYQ

MEDI9447 (Oleclumab) (antibody) had a Kd of 141 nM, a koff of 0.0342 s⁻¹ and a kon of 243000 M⁻¹ s⁻¹.
